The text below walks through data of CN114478784A (SHAANXI PULSE ELEMENT BIOTECHNOLOGY LTD COMPANY, dated 2022).

The target of assay [1] is 纯化的ENO2蛋白 (purified ENO2 protein coated in Example 7) (UniProt P09104 1-434, limits assumed). In words: ELISA, ENO2 coated at 100 ng/well, 293T supernatant, HRP anti-heavy-chain IgG / anti-kappa secondary, OD450.
The target of assay [2] is T1, ENO2 with C-terminal flag tag (ENO2flag-pcDNA3.1, expressed in transfected cells, lysate) (UniProt P09104 2-434).
T1 construct: Denatured cell lysate on SDS-PAGE / PVDF membrane (Western blot); also called ENO2抗原; not shown: C-terminal flag tag
T1 sequence (P09104 2-434 limits assumed): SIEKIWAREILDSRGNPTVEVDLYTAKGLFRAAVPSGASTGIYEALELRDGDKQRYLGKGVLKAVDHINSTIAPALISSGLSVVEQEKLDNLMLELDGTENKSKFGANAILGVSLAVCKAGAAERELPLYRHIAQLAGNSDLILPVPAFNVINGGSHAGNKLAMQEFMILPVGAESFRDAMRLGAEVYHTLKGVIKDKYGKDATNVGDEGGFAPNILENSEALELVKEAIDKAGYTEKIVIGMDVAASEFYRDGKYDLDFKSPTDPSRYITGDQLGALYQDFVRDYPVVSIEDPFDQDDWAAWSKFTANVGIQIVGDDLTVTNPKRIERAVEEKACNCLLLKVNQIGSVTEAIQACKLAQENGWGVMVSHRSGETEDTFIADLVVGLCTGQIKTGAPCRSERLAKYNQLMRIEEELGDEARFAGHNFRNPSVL
The assay can be described thus: Western blot, lysate of cells transfected with ENO2flag-pcDNA3.1, hybridoma supernatant as primary antibody. In general terms: Immunoblotting shows a protein as a band on a membrane.

For assay [3], the target named is T2, ENO2-GST (human ENO2 expressed from pGEX 4t-1, GST-purified) (human, UniProt P09104 1-434).
T2 construct: Expressed in E. coli BL21(DE3) and used to coat the ELISA plates; also called pGEX 4t-1载体表达的ENO2; ENO2抗原; not shown: GST tag of vector pGEX 4t-1
T2 sequence (P09104 whole entry): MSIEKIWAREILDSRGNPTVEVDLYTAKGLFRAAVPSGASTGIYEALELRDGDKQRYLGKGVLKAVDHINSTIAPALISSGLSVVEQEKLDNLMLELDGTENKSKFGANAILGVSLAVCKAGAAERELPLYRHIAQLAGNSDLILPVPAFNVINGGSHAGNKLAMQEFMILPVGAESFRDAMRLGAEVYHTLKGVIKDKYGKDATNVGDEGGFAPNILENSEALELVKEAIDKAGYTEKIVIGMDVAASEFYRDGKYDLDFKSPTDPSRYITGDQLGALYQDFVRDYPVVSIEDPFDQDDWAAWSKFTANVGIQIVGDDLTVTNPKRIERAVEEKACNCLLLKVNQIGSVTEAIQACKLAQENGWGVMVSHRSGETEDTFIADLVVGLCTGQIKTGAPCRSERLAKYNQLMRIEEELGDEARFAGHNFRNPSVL
In words: ELISA screening of hybridoma supernatants on coated ENO2-GST (100 ng/well), three rounds of subcloning.

Sequence of 纯化的ENO2蛋白 (purified ENO2 protein coated in Example 7) (P09104 whole entry): as above

B1: 1C5mk alone (recombinant 1C5 light chain, transfected without the heavy chain) (other)
light: QAVVTQESALTTSPGETVTLTCRSNTGAVTTSNYANWVQEKPDHLFTGLIGGTYNRAPGVPARFSGSLIGDKAALTITGAQTEDEAIYFCSLWYSNHWVFGGGTKLTVLRADAAPTVSIFPPSSEQLTSGGASVVCFLNNFYPKDINVKWKIDGSERQNGVLNSWTDQDSKDSTYSMSSTLTLTKDEYERHNSYTCEATHKTSTSPIVKSFNRNEC
notes: Tested as supernatant of 293T cells transfected with the light chain plasmid only; also called 轻链1C5mk
For the molecule B1, the binding result in assay [1] is “no binding”.

B2: ENO2单克隆抗体1C5 (from hybridoma) (antibody, V domains shown)
VH: EVKLVESGGDLVQPGGSLRLSCATSGFTFTDYYMIWVRQPPGKALEWLGFIRNKANGYTTQYNASVKGRFTISRDNSQSILYLQMNTLRPEDSATYYCVRDRRGTTFAYWGQGTLVTVSA
VL: QAVVTQESALTTSPGETVTLTCRSNTGAVTTSNYANWVQEKPDHLFTGLIGGTYNRAPGVPARFSGSLIGDKAALTITGAQTEDEAIYFCSLWYSNHWVFGGGTKLTVL
notes: It was used as hybridoma culture supernatant in the assays; also called 1C5单克隆抗体; 杂交瘤细胞上清
Regarding B2, the binding result in assay [2] and in assay [3] was “binds” throughout.
